Test results as given in the DeepSol protein solubility set.

Test: soluble on expression in E. coli; label from the status in PepcDB or PDB records

Soluble on expression in E. coli, not soluble:
LKAVNAKKDAKKIDFYEDFSCPHCAELGEVTDGPMTKAIENGDIVVNLRILNFLDRDGDDGNSTKAGAAALAVAQSGDWETYWNYRALLMKEQKNIYGKWGDNDFADVAKSLGASDEVTQKIREGGAKEDFRKFAEANSKKLEKDGGSVSSPRVFIDGKEVKNGIETWVEQATS
MKEAMNNHKKLGILLANLGTPQAPTSQAVKAFLSQFLHDQRVVDMSRWLWCPLLHGIILPTRSPKVAKLYQSIWMDEGSPLMVYSRRQRDKLAELSQRPVELGMTYGEPSLLEGVRKLQQQGVEQIVVLPLYPQYSATTTAAVFDGLAKALRQLPVVPELHFIRDYHDHPLYIQALAKSVRASWQQHGQGDLLLCSYHGIPKRYAQNGDIYPEHCLKTTELLAQALGLPQDKVMMTYQSQFGKEEWLQPYTDKTMEALPRQGIKKLDVICPAFSVDCLETLEEIAEQNQEIFLHSGGEAFHYVPCLNDSQSHIELMAALVKVDC
MAYEEHFQQTSEAKYDCLLFDIDDTLYPLSSGLAMEVKKNIQEYMVQKLGIEEDKVQELCLSLYKIYGTTMAGLKAVGYDFDYDDFHRFVHGRLPYSTLKPDPILRNIILSLPIRKVVFTNADKAHAAKIIARLGLEGCFEKIISFETLNPITKTESPVDTKTREIFDIISYMANPDSSIELPKTSVVCKPSEGAFEQVFKMANINPKKTLFFDDSIRNIQTGKRVGLHTVWVGTSHREEGVDIALEHIHNIREALPQLWDAVDDKAKEIRTRQKVAIETIA
MGSDKIHHHHHHMDHQYTTLERNRYFEVLGGLNVENRGDNKVAMLSELDMTSAQALRTSVDRQTGIKPSYTAIVAKAVSIALREHPYANRMAVERLFWKRILQLHDVHMTIAVERDRPGIEQAVFAGTIRDTDKLDVAAITKELQSLAQSTEETNERWRLLKRMVETLPPALARRLISIPRWLPDQWIKHRGGSVMISSPAKYGVDMMVANWPWPIGYSFGLVKDRVIAVEGAAQVRPTMVLTMSFDRRLMGGAPAARFFRTVCEHIEHAERDMALPVNIPS
MALPKLTDEQRKEALAKAAEARKARAELKEQLKRSDITLKEVLDKASSDEIIGKTKVSALLESLPKVGKVKAKEIMEELEIAQTRRLRGLGDRQRRALLERFGYSED
MGSDKIHHHHHHDSVKTNTNPQQAIQGEWISYSESKINLPKTTSAADAHKLLDLTASTSEKIKFDKKKVTLATNEYDYKLGRQIIIGSYSYDYKLEHGQDILKFDTTSSDIGGNVYYRVGSKLEKEKTKEINDKEAKEKKSVTHLNEVWKAKTDIIEKSLKEAMIGTWSGHFKAVATTGQGVAWAPGMQTLTFDGGTNLSFHASSDSLTNFDQIVIHNAYASYQPNGILGLEPSDHIPVDPKKLLNIIKDLTAEQMFSRIKYIAFSYDVTTDTGTISQSFSPSELSYKNGKLSFDTALLITQCGDEGVQISGDVSKTE
MGSDKIHHHHHHMSKIDELVFTPKQQDTITFPFQNVTLEVNEGTPRSGKTTADIFKMAYIYSISEDQNHLVTAYNQEQAFRLFMDGDGFGLMHIFGNLAEMKHDEHGDHLLIHSPNGPKKIYYKGGGKINSVGAITGMSLGTVTFLEINLLHKDFIEECFRRTFAAKNRFHLAELNPPAPNHPVLEIFSQYEKSGRYKWRHWTAKDNPALSDERKQEIYNEVKHSAYLLQRDWYGKRVLPAGIIYETFDVEANQIKKMQGHPIEMVFFGDGGQQDATVCECYVITEHEAEGGYTYNLNQVATYYHSGRDTGQVKAGSTYAIEIKQFIQWCMKEYEVPVNEPVFIDPACRWLREELEKVGVDTAGADNNAHDVTGKAQGIEVGIERMQSLLSERRYLLVEQPNDQYDHYSWLQEIGMYVRDENSGKPVDKNNHAMDTSRYATNYFYRNYEDI
MAQENSTVKPTQAELTLLNVLWKMGPATVRQVHDVVSTTQKTGYTTVLKILQIMHEKSLVIRDESNRAHVYAAANSQTQTQSSLIKDLISKAFGGSTSKLVMRAIDDSTSEQEINDIRQLLNSLEK

Soluble on expression in E. coli, soluble:
MSVVALVLAAGSSVRFGADKRRSLMADGRSLLVHSVESACAVFDDVRVVLREGERGVDLGLPARCRVVSSPNFTLGMGHSLAAGAASLADSEAQAVAILLGDMPWVASATLDLLAREASGSTIVLPCHAGRQGHPVLFGRDFWPALARLKGDEGARSVVKANPAVCVRLEVQDAGVLQDVDRPDAVRPLEHHHHHH
MKVDLFDFHLPEELIAQTPLPDRAASRLMVLDKRTGAIRHETFRNIISYLNPGDCLVLNDTRVMPARLYGEKEETGGTVEVLLLKQLDGDRWETLVKPGKRVKPGTKLTFGEGKLEAVCLDTLEHGGRVLEFSYDGLFYEVLAELGEMPLPPYIKEKLDDPERYQTVYAREIGSAAAPTAGLHFTEELLDAIREKGVHIVFITLHVGLGTFRPVQVDDVEKHDMHAEFYQMSEETAETLNRVREQGGRIIAVGTTSTRTLETIAGKHNGRFVAESGWTDIFIYPGYEFKGIDGLVTNFHLPKSTLIMLVSALAGRENILHAYQVAVKERYRFFSFGDAMLII
GPGSMPPKRPLYEVLGVSQDAAEEEISRVYRRMALQYHPDRNPNGEAKFKDIANAYSVLGDSEKRRVYDATGVIPGGAAETDNEATMAERSAEMKERVQVFYATYAGSPEETEDVISCYKKCKGNFRRMAREELLFDNKKQGEIQRLMELVRSLVESGRLNPTEAWKVTNTAAVLKQIERSLTRERKEAKDALDAMGLSAKEGEGGLHALQALMKRDQEAEWSKMMSNLESKYVKPKSATKGVEQNGKRNKRKAEATKTVSAPPQKKSRR
MSLNMFWFLPTHGDGHYLGTEEGSRPVDHGYLQQIAQAADRLGYTGVLIPTGRSCEDAWLVAASMIPVTQRLKFLVALRPSVTSPTVAARQAATLDRLSNGRALFNLVTGSDPQELAGDGVFLDHSERYEASAEFTQVWRRLLQRETVDFNGKHIHVRGAKLLFPAIQQPYPPLYFGGSSDVAQELAAEQVDLYLTWGEPPELVKEKIEQVRAKAAAHGRKIRFGIRLHVIVRETNDEAWQAAERLISHLDDETIAKAQAAFARTDSVGQQRMAALHNGKRDNLEISPNLWAGVGLVRGGAGTALVGDGPTVAARINEYAALGIDSFVLSGYPHLEEAYRVGELLFPLLDVAIPEIPQPQPLNPQGEAVANDFIPRKVAQS
SWQSYVDDHLMCDVEGNHLTAAAILGQDGSVWAQSAKFPQLKPQEIDGIKKDFEEPGFLAPTGLFLGGEKYMVIQGEQGAVIRGKKGPGGVTIKKTNQALVFGFYDEPMTGGQCNLVVERLGDYLIESEL
MSLTRDGSPWIPIAGEMHYSRIAAERWDTELAKMAAAGIDVVSTYVFWNHHEEREGEWDFSGNRNVRRFVELCARHGLHVIVRLGPFCHGEVRNGGLPDWLYGKSYEVRSLDAGFLDAVRGLYAHIAQQLRGLYFKDGGPIIAAQVDNEYMASSAPWEMTTGISREWVPSGHDGAGYLERLRDIAIEEGIDPPMFTCTGWQSPVPDDMLPLWGGYAYRPWLFYDGVGAEGMTEHPATDEYRYRRLHGSSTSDGFDPPYDPDSRPYACCEMGGGMFNSYDYRFVLPKRSVDAMANIKLGSGCDFLGYYMFHGGTNPKGAAGFLNEGQTPKRSYDFQAPLGKFGQVRESYRRLRTLHEFVKAFGPELAGMPVSLQDGQDRIDPSDSETLRYAVRSDGERGFVSIDNFQDHARVPSRHGEQIDVTTGTGERIRFTGIGLAEGENCILPFNMDLDGVRLVRANLQPVTVLRVPGRPFRTFVFLKPDGMDELTFHFEGDIQDVTVGKADFERFMVRDAAEIVCVTRALAGRMTVLDGGLAFVDDDNALLYEDGDGWTLESPRAENGIAAYPEGLLGSPRPVEPVSVYARMRRLHADRYEIALPAGMGRLFRDQRQVADVMLNIAYQGDIGWLFCGDVLIADNFCNGETWQVGLRDYADAIDAAGGKLTLVVTPLRRGVRVKVTSSMAARLEQSDACVADVTDVYATPVYHMPVGEGHHHHHH
MAHHHHHHMTTLEKRIEEASGLIYRARAEETPDGNPLVAARNYIAAMEIITNICKDVSPESDNDKDRFFLFQVRQRMEVYQKRVQLLLSVAAEMGLDDIPEHVGNTVLDSPPHAGDRTGAADFENPAVPSTAPTSVPPPACADGFGENVPPLEYFFSQQPQAPTRPHPEETESVEALLGQFSFDEVKKE
MSDITLREAQKSVDQWIKTLGIRYFNELTNMAILTEEVGEVARIIARRYGEQSEKESDKSKDLADEMADVLWVLLCLANQTGVDLTTAFHKNIEKKTVRDKERHQQNTKLHNNGSK
